Reference: article PMC5570905, “Phytochrome-interacting factors directly suppress MIR156 expression to enhance shade-avoidance syndrome in Arabidopsis”

T1: GST-PIF5 bHLH domain (Arabidopsis thaliana, UniProt Q84LH8 259-310)
T1 sequence: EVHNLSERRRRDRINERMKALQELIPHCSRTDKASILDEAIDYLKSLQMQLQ


Target: T1, GST-PIF5 bHLH domain
Assay: EMSA; Beyotime EMSA kit binding buffer (composition not stated), 20 min, room temperature, 5% native PAGE; 50x and 100x unlabeled competitor
Settings: protein: recombinant, tags: N-terminal GST (pGEX-4T-1), chain copies: 2, label: biotin

Row | Binder | binding result (blunt) | binding result (60 nt strands)
1 | MIR156E mutant probe (E03/E04) (dsDNA) DNA 1: CATATTCGTTCCCACTGACCTTCTCCTCAGGGGCTGACTGACCTATTCCCACGCCGAAAG DNA 2: CTTTCGGCGTGGGAATAGGTCAGTCAGCCCCTGAGGAGAAGGTCAGTGGGAACGAATATG | no binding | 
2 | MIR156F probe (E05/E06) (dsDNA) DNA 1: AACAAACCCCATTACGACACGTGACAGGCTGGGCATTCTCCACATGCTTTCTTGCCGAAA DNA 2: TTTCGGCAAGAAAGCATGTGGAGAATGCCCAGCCTGTCACGTGTCGTAATGGGGTTTGTT | binds | 
3 | MIR156F mutant probe (E07/E08) (dsDNA) DNA 1: AACAAACCCCATTACGATGACCTACAGGCTGGGCATTCTCCACATGCTTTCTTGCCGAAA DNA 2: TTTCGGCAAGAAAGCATGTGGAGAATGCCCAGCCTGTTGACCTTCGTAATGGGGTTTGTT |  | no binding
4 | MIR156E probe (E01/E02) (dsDNA) DNA 1: CATATTCGTTCCCACCACGTGTCTCCTCAGGGGCTGACCACGTGATTCCCACGCCGAAAG DNA 2: CTTTCGGCGTGGGAATCACGTGGTCAGCCCCTGAGGAGACACGTGGTGGGAACGAATATG | binds | 
